The source of these data is US20210063414A1, “METHODS FOR PREVENTING AND/OR TREATING BONE LOSS CONDITIONS BY MODULATING IRISIN” (Dana-Farber Cancer Institute, Inc., priority 2018, published 2021).

Experiment [1] has as its target T1, MLO-Y4 cell surface proteins (Mus musculus, UniProt O88492).
T1 construct: endogenous in cells; host or cells: MLO-Y4
T1 sequence (O88492 1-1403): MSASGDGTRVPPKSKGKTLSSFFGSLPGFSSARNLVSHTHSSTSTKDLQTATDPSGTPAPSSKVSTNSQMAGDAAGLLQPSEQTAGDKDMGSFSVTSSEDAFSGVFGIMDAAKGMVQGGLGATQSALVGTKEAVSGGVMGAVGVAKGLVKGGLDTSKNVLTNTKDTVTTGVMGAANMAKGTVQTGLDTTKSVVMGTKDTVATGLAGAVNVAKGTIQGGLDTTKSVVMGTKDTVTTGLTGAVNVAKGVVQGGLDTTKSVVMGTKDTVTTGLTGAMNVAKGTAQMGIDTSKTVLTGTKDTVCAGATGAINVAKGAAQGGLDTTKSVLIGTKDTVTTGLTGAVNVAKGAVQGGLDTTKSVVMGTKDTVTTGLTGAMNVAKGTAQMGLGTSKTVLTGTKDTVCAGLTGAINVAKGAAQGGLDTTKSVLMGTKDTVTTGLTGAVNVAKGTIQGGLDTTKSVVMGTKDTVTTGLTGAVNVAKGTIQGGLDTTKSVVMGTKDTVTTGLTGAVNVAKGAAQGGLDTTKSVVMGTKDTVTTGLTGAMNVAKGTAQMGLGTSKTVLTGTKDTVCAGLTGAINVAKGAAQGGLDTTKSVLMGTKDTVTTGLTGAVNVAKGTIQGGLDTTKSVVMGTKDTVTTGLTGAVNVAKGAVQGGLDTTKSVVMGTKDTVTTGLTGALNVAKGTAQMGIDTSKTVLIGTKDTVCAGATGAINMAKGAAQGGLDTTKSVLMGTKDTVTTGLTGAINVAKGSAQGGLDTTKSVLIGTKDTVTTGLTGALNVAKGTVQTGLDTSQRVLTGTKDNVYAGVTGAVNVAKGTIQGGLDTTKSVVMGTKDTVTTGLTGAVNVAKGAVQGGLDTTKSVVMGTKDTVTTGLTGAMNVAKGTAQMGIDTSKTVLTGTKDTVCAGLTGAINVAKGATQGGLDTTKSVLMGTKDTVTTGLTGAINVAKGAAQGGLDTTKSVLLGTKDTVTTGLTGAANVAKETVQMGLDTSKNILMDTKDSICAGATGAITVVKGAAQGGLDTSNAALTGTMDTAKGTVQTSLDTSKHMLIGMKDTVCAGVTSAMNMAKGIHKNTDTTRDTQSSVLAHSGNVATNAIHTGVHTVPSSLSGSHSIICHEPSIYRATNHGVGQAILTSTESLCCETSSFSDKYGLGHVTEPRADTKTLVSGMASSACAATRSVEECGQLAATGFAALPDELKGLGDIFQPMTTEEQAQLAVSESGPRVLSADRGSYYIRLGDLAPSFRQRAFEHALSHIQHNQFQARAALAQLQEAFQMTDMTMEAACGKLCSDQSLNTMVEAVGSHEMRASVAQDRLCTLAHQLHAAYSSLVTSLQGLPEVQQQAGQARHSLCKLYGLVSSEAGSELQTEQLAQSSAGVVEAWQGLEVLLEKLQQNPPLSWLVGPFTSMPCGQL
Kind of experiment: Crosslinking/co-immunoprecipitation/mass spectrometry (TMT quantitative proteomics) to identify irisin receptors. The following applies: co-precipitated protein Plin4 (PLIN4_MOUSE). In kind it is binding. Put shortly: (§1)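 Relative protein abundance came from 6-plex TMT MS3 quantitation on an Orbitrap Fusion Lumos, after in-gel trypsin digestion of Coomassie-stained SDS-PAGE lanes. Input was a Ni-NTA pulldown (250 mM imidazole elution) of lysates from murine MLO-Y4 cells. These cells were treated on ice with His-tagged irisin or adipsin (10 nM, 20 min) in serum-free medium, then crosslinked with 1.5 mM DTSSP for 30 min.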

The target of experiment [2] is T2, MLO-Y4 cell surface proteins (Mus musculus, UniProt C0HKE1).
T2 construct: endogenous in cells; host or cells: MLO-Y4
Described as above. In kind it is binding. The settings on record: co-precipitated protein Hist1h2ab (H2A1_MOUSE). Put shortly:
as §1

On to adipsin, for which the TMT signal-to-noise ratio is 111.989 in experiment [1] and 273.934 in experiment [2].
